# Test system: MS2 coat protein
# Experiment: apparent KD of MS2 coat protein; designed switch direction (-1 OFF switch, 1 ON switch): 1; higher = weaker reporter binding
# Outline: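 For each design, the apparent KD is the median over clusters of curves fitted to normalised cluster fluorescence. Clusters held RNA switches with common flanks, transcribed on Illumina chips by stalled E. coli RNA polymerase. These were titrated with SNAP-549-labelled MS2 coat protein, doubling from 0.7 or 1.5 nM to 3 µM, without input, with 200 uM small-molecule ligand, or with an oligonucleotide input.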
# [1] = input ligand: microRNA oligo, concentration not stated
Sequence,apparent KD of MS2 coat protein (input ligand: FMN 200 uM),apparent KD of MS2 coat protein [1],apparent KD of MS2 coat protein (input ligand: none),"apparent KD of MS2 coat protein (Eterna round: R95, input ligand: microRNA oligo, concentration not stated)"
"GCGGACCUGACAUGAGGAUCACCCAUGUUGCGGAGACGCAAUGAGGAUAUCGAUGGGUUUCCCGUCGAGAAGGCAUAAAUCCGC [JL SSNG3 3.93 mod 3] (Eterna round: R96, puzzle: Same State NG 3)",15.1 nM,16 nM,25.2 nM,–
"GCGGAGAGGUAAGGAUAUCCAUGGAAAAAACAUGAGGAUCACCCAUGUAGGAAAAAAACUAGGAGGGAGAAGGUACCGGGACGC [AK SSNG2-V2-20] (Eterna round: R96, puzzle: Same State NG 2)",21.7 nM,23.4 nM,29.8 nM,–
"GCUACCAAAGAAGCCAACAUGAGGAUCACCCAUGUAUGUUGGUAGGAUAUCGUUUGCAAAGCAAACGAGAAGGGCUAAGGUAGC [Mat - Same State NG 3 - JL Mod - D77] (Eterna round: R96, puzzle: Same State NG 3)",138 nM,99.2 nM,107 nM,–
"GCUAGAAUAAACGCCUACAUGAGGAUCACCCAUGUAUGUAGGCAGGAUAUCGUAUGCAAAGCAUACGAGAAGGGCCUUACUAGC [Mat - Same State NG 3 - JL Mod - D33] (Eterna round: R96, puzzle: Same State NG 3)",25.7 nM,27.7 nM,43.4 nM,–
"GCUAGGAAAUAAGCCAACAUGAGGAUCACCCAUGUAUGUUGGUAGGAUAUCGUUUGCAAAGCAAACGAGAAGGGCUAACCUAGC [Mat - Same State NG 3 - JL Mod - D70] (Eterna round: R96, puzzle: Same State NG 3)",72.2 nM,70.6 nM,85.9 nM,–
"GCUCCAUUACGAGGAUAUGGGAAAGGAAGUGUACCAGAAGGCGUGAAAAGGUACAUGAGGAUCACCCAUGUACCCGGGAGCAAA [PowerStrip SSNG 1.11] (Eterna round: R96, puzzle: Same State NG 1)",23.1 nM,19.6 nM,20.3 nM,–
"GCUCCGCAAUACUUUCACAUGAGGAUCACCCAUGUUCACGUUAAGGAUAUCUAUUGUGAGACAGUAGAGAAGGUAGCGAGCGAC [Eternabot solution 11] (Eterna round: R96, puzzle: Same State NG 3)",25.7 nM,15.2 nM,24.2 nM,–
"GCUCGAAUCAAAACCAACAUGAGGAUCACCCAUGUAUGUUGGUAGGAUAUCGUUUGUAAAACAAACGAGAAGGGCCAAACGAGC [SameState NG3 #4] (Eterna round: R96, puzzle: Same State NG 3)",53 nM,93.3 nM,118 nM,–
"GCUCGACGUACGGCCUACAUGAGGAUCACCCAUGUGACUGGGCAGGAUAUCUAAAUGCAGAAUGUAGAGAAGGGCCCGUCGAGC [SameState NG3 #50] (Eterna round: R96, puzzle: Same State NG 3)",323 nM,35.9 nM,384 nM,–
"GCUCGACGUAUUGUCUACAUGAGGAUCACCCAUGUAGGUGCGAAGGAUAUCUACGUGUUUCAUGUAGAGAAGGUCGUGUCGAGC [SameState NG3 #93] (Eterna round: R96, puzzle: Same State NG 3)",36.3 nM,35.1 nM,46.4 nM,–
"GCUCGACGUUCGGCCUACAUGAGGAUCACCCAUGUGACUGGGCAGGAUAUCUAAAUGCAGAAUGUAGAGAAGGGCCCGUCGAGC [SameState NG3 #51] (Eterna round: R96, puzzle: Same State NG 3)",168 nM,43.4 nM,190 nM,–
"GCUCGAUGAGCGUUCUACAUGAGGAUCACCCAUGUUCGUGGGCAGGAUAUUUACAUGCAGAGUGUAGAGAAGGGCCCAUCGAGC [SameState NG3 #66] (Eterna round: R96, puzzle: Same State NG 3)",205 nM,117 nM,838 nM,–
"GCUCGAUGAUAGGCCUACAUGAGGAUCACCCAUGUAACUGGGCAGGAUAUCUAAAUGCAGAAUGUAGAGAAGGGCCCGUCGAGC [SameState NG3 #53] (Eterna round: R96, puzzle: Same State NG 3)",220 nM,86.8 nM,230 nM,–
"GCUCGGCUGAUGGCCCACAUGAGGAUCACCCAUGUGACUGGGCAGGAUAUCUAGAUUCAGGAUGUAGAGAAGGGCCUGCCGAGC [SameState NG3 #40] (Eterna round: R96, puzzle: Same State NG 3)",331 nM,77.3 nM,188 nM,–
GCUCUACAUGAGGAUCACCCAUGUCCAUCCGCACGAGGAUAUGCAUGGGCGAAAGCUGGUGCAGAAGGCGUGGGAC [Tr3Pin] (puzzle: Same State 1),–,–,–,409 nM
"GCUGGAAACUACAUGAGGAUCACCCAUGUUCCGGAAACGGCACAGGAUAUCUGUCCGAAAAGGUCAGAGAAGGGUGAAACCAGC [Fiskers NG3ss - 84] (Eterna round: R96, puzzle: Same State NG 3)",106 nM,90.3 nM,1020 nM,–
"GCUGGCAUGCAAGGAUAUCCUUCCGAGUAGGAAGGAGAAGGUGCUUGUGGGACAUGAGGAUCACCCAUGUAUGUUGGCCACGAC [Inrala] (Eterna round: R96, puzzle: Same State NG 1)",–,82.1 nM,–,–
"GCUUGCCGCACAGGAUAUGGGUGCCUGUACAUGAGGAUCACCCAUGUUAAGGGACGGAUUACGAACCAGAAGGGUGAGGCGGGC [Lereatle] (Eterna round: R96, puzzle: Same State NG 2)",59.4 nM,119 nM,473 nM,–
"GGAAUAUGAUGUUACAUGAGGAUCACCCAUGUAGUAAUAACUAAGGAUAUCUGAAAAGGAGGAGAAGAGAAGGUAGGAUCAUAA [AK SSNG3-V2-10.1] (Eterna round: R96, puzzle: Same State NG 3)",13.3 nM,22.5 nM,33.3 nM,–
"GGAAUAUGAUGUUACAUGAGGAUCACCCAUGUAGUGAUAACUAAGGAUAUUUGAAAGGAAGGAGAAGAGAAGGUAGGAUCAUAA [AK SSNG3-V2-12] (Eterna round: R96, puzzle: Same State NG 3)",50.9 nM,34.3 nM,55.4 nM,–
"GGAAUAUUUACAGGAUAUCAUUUGUAAAUUCGAUGAGAAGGGUAGAUGUCUUACACGACUUGUUACAUGAGGAUCACCCAUGUU [SameState NG1 #8] (Eterna round: R96, puzzle: Same State NG 1)",–,34 nM,–,–
"GGACCCUUCGGAGGAUAUUCUCAGUAACAGUAAGAAGAAGGCCGUAAGUCAUACGCGCGUUACAUGAGGAUCACCCAUGUGUGG [Eternabot solution 47] (Eterna round: R96, puzzle: Same State NG 1)",149 nM,150 nM,333 nM,–
"GGACGUCAUCUCACUGAUUAACAUGAGGAUCACCCAUGUUCACAGGAUAUGAGUCCGAUUAGGACUCAGAAGGGUGAGACGUCC [Fiskers NG3ss - 47] (Eterna round: R96, puzzle: Same State NG 3)",19.3 nM,16.8 nM,19.3 nM,–
